Earlier results in publication PMC9805914.

Molecular target: SARS-CoV-2 spike RGD motif RGD motif (Severe acute respiratory syndrome coronavirus 2) (UniProt P0DTC2)

Q: For integrin αvβ8 (from UniProt P06756), which Kd is on record?
A: Its Kd is 4 nM.
